In the supplement of paper PMC10567573:

B1: VTI1B (parent)
chain: ANETLAEMEEELRYAPLSFRNPMM

Variants of: B1
Experiment: protein stability index of a GFP-peptide fusion (GPS, HEK-293T) (PSI 1-6); higher = more stable
Conditions: c terminus: a fixed tail appended
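Note: lentivirally expressed fusions sorted by FACS into six bins by GFP to DsRed ratio, PSI derived from sequencing read proportions per bin multiplied by bin number.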

Variant	protein stability index
ANETLAEMEEELRAAPLSFRNPMM	2.48
ANETLAEMHEELRYAPLSFRNPMM	3.27
ANETLAEMREELRYAPLSFRNPMM	1.4
ANETLAEMYEELRYAPLSFRNPMM	2.48
ANETLAEMGEELRYAPLSFRNPMM	2.19
ANETLAEMTEELRYAPLSFRNPMM	2.94
ANETLAEMPEELRYAPLSFRNPMM	3.22
ANETLAEMAEELRYAPLSFRNPMM	2.44
ANETLAEMWEELRYAPLSFRNPMM	1.3
ANETLAEMDEELRYAPLSFRNPMM	2.85
ANETLAEMMEELRYAPLSFRNPMM	2.19
ANETLAEMKEELRYAPLSFRNPMM	1.8
ANETLAEMSEELRYAPLSFRNPMM	2.78
ANETLAEMNEELRYAPLSFRNPMM	2.87
ANETLAEMIEELRYAPLSFRNPMM	3.61
ANETLAEMFEELRYAPLSFRNPMM	2.71
ANETLAEMLEELRYAPLSFRNPMM	2.45
ANETLAEMVEELRYAPLSFRNPMM	1.66
ANETLAEMCEELRYAPLSFRNPMM	2.33
ANETLAEYEEELRYAPLSFRNPMM	2.73
ANETLAEMEDELRYAPLSFRNPMM	1.62
ANETLAEMEHELRYAPLSFRNPMM	3.06
ANETLAEMEVELRYAPLSFRNPMM	1.82
ANETLAEMEPELRYAPLSFRNPMM	2.73

Variant	protein stability index
ANETLAEMESELRYAPLSFRNPMM	2.56
ANETLAEMEYELRYAPLSFRNPMM	1.69
ANETLAEMEQELRYAPLSFRNPMM	3.3
ANETLAEMEMELRYAPLSFRNPMM	1.87
ANETLAEMERELRYAPLSFRNPMM	1.17
ANETLAEMEGELRYAPLSFRNPMM	1.49
ANETLAEMELELRYAPLSFRNPMM	2.05
ANETLAEMEKELRYAPLSFRNPMM	2.73
ANETLAEMETELRYAPLSFRNPMM	3.02
ANETLAEMEWELRYAPLSFRNPMM	1.96
ANETLAEMEIELRYAPLSFRNPMM	2.05
ANETLAEMEFELRYAPLSFRNPMM	2.75
ANETLAEMECELRYAPLSFRNPMM	2.16
ANETLAEMENELRYAPLSFRNPMM	2.55
ANETLAEMEAELRYAPLSFRNPMM	2.04
ANETLAEMEEEPRYAPLSFRNPMM	2.95
ANETLAEMEEEIRYAPLSFRNPMM	2.99
ANETLAEMEEERRYAPLSFRNPMM	2.59
ANETLAEMEEEQRYAPLSFRNPMM	3.33
ANETLAEMEEEKRYAPLSFRNPMM	3.27
ANETLAEMEEENRYAPLSFRNPMM	4.82
ANETLAEMEEEDRYAPLSFRNPMM	4.49
ANETLAEMEEECRYAPLSFRNPMM	4.37
ANETLAEMEEEGRYAPLSFRNPMM	2.62

Variant	protein stability index
ANETLAEMEEEMRYAPLSFRNPMM	2.28
ANETLAEMEEEARYAPLSFRNPMM	3.14
ANETLAEMEEEERYAPLSFRNPMM	3.65
ANETLAEMEEEFRYAPLSFRNPMM	3.14
ANETLAEMEEETRYAPLSFRNPMM	3.9
ANETLAEMEEEHRYAPLSFRNPMM	3.79
ANETLAEMEEESRYAPLSFRNPMM	4.33
ANETLAEMEEEYRYAPLSFRNPMM	4.21
ANETLAEMEEEWRYAPLSFRNPMM	2.19
ANETLAEMEEEVRYAPLSFRNPMM	1.83
ANETLAEMEELLRYAPLSFRNPMM	2.29
ANETLAEMEEYLRYAPLSFRNPMM	2.51
ANETLAEMEETLRYAPLSFRNPMM	3.25
ANETLAEMEENLRYAPLSFRNPMM	2.81
ANETLAEMEEHLRYAPLSFRNPMM	2.89
ANETLAEMEEQLRYAPLSFRNPMM	1.95
ANETLAEMEEFLRYAPLSFRNPMM	1.66
ANETLAEMEEKLRYAPLSFRNPMM	3.41
ANETLAEMEEALRYAPLSFRNPMM	2
ANETLAEMEERLRYAPLSFRNPMM	2.31
ANETLAEMEESLRYAPLSFRNPMM	3.02
ANETLAEMEEILRYAPLSFRNPMM	2.69
ANETLAEMEEDLRYAPLSFRNPMM	2.13
ANETLAEMEEWLRYAPLSFRNPMM	1.55

Variant	protein stability index
ANETLAEMEEVLRYAPLSFRNPMM	1.65
ANETLAEMEECLRYAPLSFRNPMM	2.22
ANETLAEMEEPLRYAPLSFRNPMM	2.17
ANETLAEMEEMLRYAPLSFRNPMM	2.45
ANETLAEMEEELNYAPLSFRNPMM	1.94
ANETLAEMEEELAYAPLSFRNPMM	2.04
ANETLAEMEEELDYAPLSFRNPMM	3.02
ANETLAEMEEELMYAPLSFRNPMM	2.29
ANETLAEMEEELYYAPLSFRNPMM	1.64
ANETLAEMEEELLYAPLSFRNPMM	1.7
ANETLAEMEEELCYAPLSFRNPMM	2.77
ANETLAEMEEELVYAPLSFRNPMM	2.64
ANETLAEMEEELTYAPLSFRNPMM	1.42
ANETLAEMEEELHYAPLSFRNPMM	1.82
ANETLAEMEEELEYAPLSFRNPMM	2.11
ANETLAEMEEELKYAPLSFRNPMM	1.46
ANETLAEMEEELSYAPLSFRNPMM	2.25
ANETLAEMEEELGYAPLSFRNPMM	1.67
ANETLAEMEEELPYAPLSFRNPMM	2.75
ANETLAEMEEELQYAPLSFRNPMM	2.37
ANETLAEMEEELWYAPLSFRNPMM	2.03
ANETLAEMEEELFYAPLSFRNPMM	2.01
